# Laboratory results from patent US20240115500A1, “POLYMERIC MICELLE COMPLEXES OF MRNA OR ZWITTERIONIC AGENTS, AND FORMULATIONS AND USES THEREOF” (Aravasc Inc., priority 2020, published 2024).
# B1: interferon gamma: interferon protein tested for complexation with PBC (protein, UniProt P01579 24-161, looked up)
# Interferon gamma: QDPYVKEAENLKKYFNAGHSDVADNGTLFLGILKNWKEESDRKIMQSQIVSFYFKLFKNFKDDQSIQKSVETIKEDMNVKFFNSNKKKRDDFEKLTNYSVTDLNVQRKAIHELIQVMAELSPAAKTGKRKRSQMLFRG
# Test: Agarose gel electrophoresis of protein + PBC formulations at defined w/w ratios (Example 2)
# [1] = polymer:protein ratio 15:1, FIG. 2A-2D
# Description: Unless otherwise indicated, the complexation was conducted at room temperature by incubating the PBC with the protein for 10-20 minutes on a microcentrifuge. A formulation of PBC alone was prepared along with the protein and PBC complexes.
# Formulation were prepared as described above and analyzed by agarose gel electrophoresis. A 2% agarose gel was prepared and 20 μl of each formulation was loaded at the center of the gel. The gel was run for 30 minutes at 75V.
Molecule,complexation with the polymer (agarose gel) [1],"complexation with the polymer (agarose gel) (polymer:protein ratio 30:1, FIG. 2A/2B)","complexation with the polymer (agarose gel) (polymer:protein ratio 18:1, FIG. 2D)"
Semaglutide,significantly complex,significantly complex,–
interferon alpha,–,–,significantly complex
B1,significantly complex,–,–
